Consider 17 molecules from patent US20240317859A1 (FOUNDATION FOR BIOMEDICAL RESEARCH AND INNOVATION AT KOBE, published 2024).

Assay [1] has as its target T1, human PD-1 (wild-type), expressed on cells (human, UniProt Q15116 25-288). In words: cell-based or functional assay.
Assay [2] concerns the target Human PD-1/PDCD1 Protein (PD-1) (human, UniProt Q15116 25-167, limits assumed). In words: SPR, Biacore 8K; PD-1 captured by anti-His antibody, antibody in flow. The method, then: The binding affinity of each antibody to human PD-1 was measured with Biacore 8K (Cytiva). Briefly, anti-His Tag antibody was immobilized by amine coupling using Amine Coupling Kit and His Capture Kit, onto 8 channels of a sensor chip (provided with 16 flow cells; one channel consisting of two flow cells) which had carboxymethyl dextran immobilized on a gold film. The immobilization was performed by feeding an activation solution (NHS and EDC mixed in equal amounts) at a flow rate of 10 μl/min for 7 minutes, an immobilization solution at a flow rate of 5 μl/min for 7 minutes, and 1 M ethanolamine hydrochloride-NaOH (pH 8.5) at a flow rate of 10 μl/min for 7 minutes. The buffer used at the time of immobilization was 1×HBS-EP+ Buffer. After the immobilization and before applying a sample, Human PD-1/PDCD1 Protein (PD-1) adjusted to 1 μg/ml with 1×HBS-EP+ Buffer was fed to one of the two flow cells of each channel in an amount of 20 μl at a flow rate of 10 μl/min to thereby capture PD-1 on the sensor chip. As regards the other flow cell, 1×HBS-EP+ Buffer was fed in the same manner to prepare a control flow cell. Each antibody was adjusted to 16 nM with 1×HBS-EP+ Buffer, and then subjected to 2-fold 7-step serial dilution using 1×HBS-EP+ Buffer. The resultant sample solution (30 μl) was fed to each flow cell at a flow rate of 10 μl/min and the response was measured. After subtracting the response of control flow cell from the response of the flow cell which was allowed to capture the ligand, KD value was calculated by curve fitting using Biacore 8K Evaluation Software.

The target in assay [3] is T1, human PD-1 (wild-type), expressed on …. As to the kind of experiment: cell-based or functional assay. This is another data set of the same source.

Where two headings read alike, the source gives them in different places. Where only a bound is given, the exact number is not on record here.

T1 sequence (Q15116 25-288 limits assumed): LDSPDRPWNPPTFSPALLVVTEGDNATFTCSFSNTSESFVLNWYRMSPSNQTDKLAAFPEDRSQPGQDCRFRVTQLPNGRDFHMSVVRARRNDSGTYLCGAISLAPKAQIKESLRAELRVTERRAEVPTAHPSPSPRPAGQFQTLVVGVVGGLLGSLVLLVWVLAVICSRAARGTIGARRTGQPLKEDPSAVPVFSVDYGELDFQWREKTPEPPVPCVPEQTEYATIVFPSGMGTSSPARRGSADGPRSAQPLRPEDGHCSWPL
Chain of Human PD-1/PDCD1 Protein (PD-1) (Q15116 25-167 limits assumed): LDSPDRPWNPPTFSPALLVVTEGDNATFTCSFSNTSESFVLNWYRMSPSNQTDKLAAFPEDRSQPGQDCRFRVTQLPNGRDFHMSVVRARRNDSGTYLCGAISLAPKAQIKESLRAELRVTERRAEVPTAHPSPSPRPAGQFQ

B1: HM297-G5 (antibody, human IgG1, V domains shown)
VH: QVQLVQSGPEVKKPGASVKIPCKASGYTFTDYNVDWVRQVPGQGLEWIGDIDPNNGGTIYNQKFKDKATLTVDKSTRTAYMELRSLRSDDTAVYYCARWRGAMDYWGQGTLVTVSS
VL: DIQMTQSPSSLSASVGDRVTITCRASQDIDNYLKWYQQKPDGTVKLLIYDTSRLHSGVPSRFSGSGSGTDYTLTISSLKQEDFATYYCQQGYTLPWTFGQGTKLEIK
notes: also called humanized HM297, VH ver.G / VL ver.5
In the case of B1, in assay [1], the “Cell-cell contact assay” value was 102 ng/mL. This molecule also yielded a Kd in assay [2] of 0.232 nM.

B2: humanized HM297-H5-IgG1-K322A (antibody, V domains shown)
VH: QVQLVQSGPEVKKPGASVKIPCKASGYTFTDYNVDWVRQVPGQGLEWMGDIDPNNGGTIYNQKFKDRVTMTVDKSTRTAYMELRSLRSDDTAVYYCARWRGAMDYWGQGTLVTVSS
VL: DIQMTQSPSSLSASVGDRVTITCRASQDIDNYLKWYQQKPDGTVKLLIYDTSRLHSGVPSRFSGSGSGTDYTLTISSLKQEDFATYYCQQGYTLPWTFGQGTKLEIKR
With B2, the “Cell-cell contact assay” value in assay [1] turned out to be 96.4 ng/mL. This molecule had a dissociation constant (Kd) in assay [2] of 0.563 nM.

B3: HM297-F6 (antibody, human IgG1, V domains shown)
VH: QVQLVQSGPEVKKPGASVKIPCKASGYTFTDYNVDWVRQSHGKSLEWIGDIDPNNGGTIYNQKFKDRVTMTVDKSTRTAYMELRSLRSDDTAVYYCARWRGAMDYWGQGTLVTVSS
VL: DIQMTQSPSSLSASVGDRVTITCRASQDIDNYLKWYQQKPGKAPKLLIYDTSRLHSGVPSRFSGSGSGTDYTLTISSLQPEDFATYYCQQGYTLPWTFGQGTKLEIK
notes: also called humanized HM297, VH ver.F / VL ver.6
Take B3: the “Cell-cell contact assay” value in assay [1] came to 150 ng/mL. This molecule came in with a Kd in assay [2] of 4.83 nM.

B4: HM297-I6 (antibody, human IgG1, V domains shown)
VH: QVQLVQSGPEVKKPGASVKVVCKASGYTFTDYNVDWVRQVPGQGLEWMGDIDPNNGGTIYNQKFKDRVTMTVDTSTRTAYMELRSLRSDDTAVYYCARWRGAMDYWGQGTLVTVSS
VL: DIQMTQSPSSLSASVGDRVTITCRASQDIDNYLKWYQQKPGKAPKLLIYDTSRLHSGVPSRFSGSGSGTDYTLTISSLQPEDFATYYCQQGYTLPWTFGQGTKLEIK
notes: also called humanized HM297, VH ver.I / VL ver.6
Regarding B4, the “Cell-cell contact assay” value in assay [1] is 137 ng/mL. The same molecule showed a Kd in assay [2] of 3.48 nM.

B5: HM297-H4 (antibody, human IgG1, V domains shown)
VH: QVQLVQSGPEVKKPGASVKIPCKASGYTFTDYNVDWVRQVPGQGLEWMGDIDPNNGGTIYNQKFKDRVTMTVDKSTRTAYMELRSLRSDDTAVYYCARWRGAMDYWGQGTLVTVSS
VL: DIQMTQTTSSLSASVGDRVTITCRASQDIDNYLKWYQQKPDGTVKLLIYDTSRLHSGVPSRFSGSGSGTDYTLTISSLKQEDFATYYCQQGYTLPWTFGQGTKLEIK
notes: also called humanized HM297, VH ver.H / VL ver.4
As to B5, the “Cell-cell contact assay” value in assay [1] came out at 185 ng/mL. In assay [2], the Kd is 0.221 nM.

B6: HM297-G6 (antibody, human IgG1, V domains shown)
VH: QVQLVQSGPEVKKPGASVKIPCKASGYTFTDYNVDWVRQVPGQGLEWIGDIDPNNGGTIYNQKFKDKATLTVDKSTRTAYMELRSLRSDDTAVYYCARWRGAMDYWGQGTLVTVSS
VL: DIQMTQSPSSLSASVGDRVTITCRASQDIDNYLKWYQQKPGKAPKLLIYDTSRLHSGVPSRFSGSGSGTDYTLTISSLQPEDFATYYCQQGYTLPWTFGQGTKLEIK
notes: also called humanized HM297, VH ver.G / VL ver.6
Turning to B6, the “Cell-cell contact assay” value in assay [1] came out at 59.7 ng/mL. In assay [2], this molecule came in with a Kd of 1.89 nM.

B7: HM297-E6 (antibody, human IgG1, V domains shown)
VH: QVQLVQSGPELVKPGASVKIPCKASGYTFTDYNVDWVRQSHGKSLEWIGDIDPNNGGTIYNQKFKDKATLTVDKSTRTAYMELRSLRSDDTAVYYCARWRGAMDYWGQGTLVTVSS
VL: DIQMTQSPSSLSASVGDRVTITCRASQDIDNYLKWYQQKPGKAPKLLIYDTSRLHSGVPSRFSGSGSGTDYTLTISSLQPEDFATYYCQQGYTLPWTFGQGTKLEIK
notes: also called humanized HM297, VH ver.E / VL ver.6
In the case of B7, in assay [1], the “Cell-cell contact assay” value stood at 65.4 ng/mL. Besides, the Kd in assay [2] worked out at 12.6 nM.

B8: HM297-F4 (antibody, human IgG1, V domains shown)
VH: QVQLVQSGPEVKKPGASVKIPCKASGYTFTDYNVDWVRQSHGKSLEWIGDIDPNNGGTIYNQKFKDRVTMTVDKSTRTAYMELRSLRSDDTAVYYCARWRGAMDYWGQGTLVTVSS
VL: DIQMTQTTSSLSASVGDRVTITCRASQDIDNYLKWYQQKPDGTVKLLIYDTSRLHSGVPSRFSGSGSGTDYTLTISSLKQEDFATYYCQQGYTLPWTFGQGTKLEIK
notes: also called humanized HM297, VH ver.F / VL ver.4
With B8, the “Cell-cell contact assay” value in assay [1] came out at 92.3 ng/mL. This molecule registered a Kd in assay [2] of 24.1 nM.

B9: HM297-G4 (antibody, human IgG1, V domains shown)
VH: QVQLVQSGPEVKKPGASVKIPCKASGYTFTDYNVDWVRQVPGQGLEWIGDIDPNNGGTIYNQKFKDKATLTVDKSTRTAYMELRSLRSDDTAVYYCARWRGAMDYWGQGTLVTVSS
VL: DIQMTQTTSSLSASVGDRVTITCRASQDIDNYLKWYQQKPDGTVKLLIYDTSRLHSGVPSRFSGSGSGTDYTLTISSLKQEDFATYYCQQGYTLPWTFGQGTKLEIK
notes: also called humanized HM297, VH ver.G / VL ver.4
For the molecule B9, in assay [1], the “Cell-cell contact assay” value was 55.4 ng/mL. In assay [2], this molecule returned an equilibrium dissociation constant (Kd) of 0.451 nM.

B10: HM297-I4 (antibody, human IgG1, V domains shown)
VH: QVQLVQSGPEVKKPGASVKVVCKASGYTFTDYNVDWVRQVPGQGLEWMGDIDPNNGGTIYNQKFKDRVTMTVDTSTRTAYMELRSLRSDDTAVYYCARWRGAMDYWGQGTLVTVSS
VL: DIQMTQTTSSLSASVGDRVTITCRASQDIDNYLKWYQQKPDGTVKLLIYDTSRLHSGVPSRFSGSGSGTDYTLTISSLKQEDFATYYCQQGYTLPWTFGQGTKLEIK
notes: also called humanized HM297, VH ver.I / VL ver.4
For B10, the “Cell-cell contact assay” value in assay [1] was found to be 65.6 ng/mL. The same molecule registered a Kd in assay [2] of 4.84 nM.

B11: HM297-E5 (antibody, human IgG1, V domains shown)
VH: QVQLVQSGPELVKPGASVKIPCKASGYTFTDYNVDWVRQSHGKSLEWIGDIDPNNGGTIYNQKFKDKATLTVDKSTRTAYMELRSLRSDDTAVYYCARWRGAMDYWGQGTLVTVSS
VL: DIQMTQSPSSLSASVGDRVTITCRASQDIDNYLKWYQQKPDGTVKLLIYDTSRLHSGVPSRFSGSGSGTDYTLTISSLKQEDFATYYCQQGYTLPWTFGQGTKLEIK
notes: also called humanized HM297, VH ver.E / VL ver.5
B11: in assay [1], the “Cell-cell contact assay” value was found to be 78.6 ng/mL. Further, the equilibrium dissociation constant (Kd) in assay [2] came out at 50.2 nM.

B12: HM297-E4 (antibody, human IgG1, V domains shown)
VH: QVQLVQSGPELVKPGASVKIPCKASGYTFTDYNVDWVRQSHGKSLEWIGDIDPNNGGTIYNQKFKDKATLTVDKSTRTAYMELRSLRSDDTAVYYCARWRGAMDYWGQGTLVTVSS
VL: DIQMTQTTSSLSASVGDRVTITCRASQDIDNYLKWYQQKPDGTVKLLIYDTSRLHSGVPSRFSGSGSGTDYTLTISSLKQEDFATYYCQQGYTLPWTFGQGTKLEIK
notes: also called humanized HM297, VH ver.E / VL ver.4
Turning to B12, in assay [1], the “Cell-cell contact assay” value came out at 100 ng/mL. Also, in assay [2], the Kd came to 0.129 nM.

B13: HM297-I5 (antibody, human IgG1, V domains shown)
VH: QVQLVQSGPEVKKPGASVKVVCKASGYTFTDYNVDWVRQVPGQGLEWMGDIDPNNGGTIYNQKFKDRVTMTVDTSTRTAYMELRSLRSDDTAVYYCARWRGAMDYWGQGTLVTVSS
VL: DIQMTQSPSSLSASVGDRVTITCRASQDIDNYLKWYQQKPDGTVKLLIYDTSRLHSGVPSRFSGSGSGTDYTLTISSLKQEDFATYYCQQGYTLPWTFGQGTKLEIK
notes: also called humanized HM297, VH ver.I / VL ver.5
For the molecule B13, the “Cell-cell contact assay” value in assay [1] turned out to be 94.9 ng/mL. In addition, in assay [2], the Kd is 2.2 nM.

B14: HM297-F5 (antibody, human IgG1, V domains shown)
VH: QVQLVQSGPEVKKPGASVKIPCKASGYTFTDYNVDWVRQSHGKSLEWIGDIDPNNGGTIYNQKFKDRVTMTVDKSTRTAYMELRSLRSDDTAVYYCARWRGAMDYWGQGTLVTVSS
VL: DIQMTQSPSSLSASVGDRVTITCRASQDIDNYLKWYQQKPDGTVKLLIYDTSRLHSGVPSRFSGSGSGTDYTLTISSLKQEDFATYYCQQGYTLPWTFGQGTKLEIK
notes: also called humanized HM297, VH ver.F / VL ver.5
Regarding B14, the “Cell-cell contact assay” value in assay [1] turned out to be 98.9 ng/mL. This molecule had a Kd in assay [2] of 2.35 nM.

B15: HM297-H6 (antibody, human IgG1, V domains shown)
VH: QVQLVQSGPEVKKPGASVKIPCKASGYTFTDYNVDWVRQVPGQGLEWMGDIDPNNGGTIYNQKFKDRVTMTVDKSTRTAYMELRSLRSDDTAVYYCARWRGAMDYWGQGTLVTVSS
VL: DIQMTQSPSSLSASVGDRVTITCRASQDIDNYLKWYQQKPGKAPKLLIYDTSRLHSGVPSRFSGSGSGTDYTLTISSLQPEDFATYYCQQGYTLPWTFGQGTKLEIK
notes: also called humanized HM297, VH ver.H / VL ver.6
B15: the “Cell-cell contact assay” value in assay [1] was found to be 141 ng/mL. In assay [2], this molecule registered a Kd of 1.86 nM.

B16: HM242-C1 (antibody, human IgG1, V domains shown)
VH: QVQLVQSGPEVKKPGASVKVVCKASGYTFTSYYIQWVKQRPGQGLEWIGWIYPGDGTTKYNEKFKGRVTMTIDKSTRTAYMELRSLRSDDTAVYYCASYYGSYFDYWGQGTLVTVSS
VL: DIQMTQTTSSLSASVGDRVTITCRASQDISNYLNWYQQKPDGTVTLLIYYTSKLHSGVPSRFSGSGSGTDYTLTISSLEQKDFATYYCQQSSTLPFTFGQGTKLEIK
notes: also called humanized HM242, VH ver.C / VL ver.1
On to B16, for which the “Cell-cell contact assay” value in assay [3] is 19 ng/mL. Further, in assay [2], the Kd was below 0.0179 nM.

B17: chimeric HM297-IgG1-K322A (antibody)
heavy: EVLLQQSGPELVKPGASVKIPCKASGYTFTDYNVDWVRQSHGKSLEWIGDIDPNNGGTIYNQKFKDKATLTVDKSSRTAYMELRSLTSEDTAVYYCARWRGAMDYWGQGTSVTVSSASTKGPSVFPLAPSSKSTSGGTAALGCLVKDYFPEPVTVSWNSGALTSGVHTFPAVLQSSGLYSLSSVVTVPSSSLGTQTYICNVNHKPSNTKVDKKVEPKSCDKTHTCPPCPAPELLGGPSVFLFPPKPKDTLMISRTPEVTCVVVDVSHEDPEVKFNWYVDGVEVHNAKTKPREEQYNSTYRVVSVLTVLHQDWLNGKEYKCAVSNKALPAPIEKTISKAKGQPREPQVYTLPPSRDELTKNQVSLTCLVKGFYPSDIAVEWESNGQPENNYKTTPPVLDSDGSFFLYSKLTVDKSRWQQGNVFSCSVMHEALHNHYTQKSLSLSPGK
light: DVQMTQTTSSLSASLGDRVTISCRASQDIDNYLKWYQQKPDGTVKLLIYDTSRLHSGVPSRFSGSGSGTDYSLTISNLKQEDIATYFCQQGYTLPWTFGGGTRLEIKRTVAAPSVFIFPPSDEQLKSGTASVVCLLNNFYPREAKVQWKVDNALQSGNSQESVTEQDSKDSTYSLSSTLTLSKADYEKHKVYACEVTHQGLSSPVTKSFNRGEC
notes: Mouse Fab region with the Fc region of human IgG1-K322A
Take B17: the “Cell-cell contact assay” value in assay [1] came to 78.3 ng/mL. The Kd in assay [2] was 0.0493 nM.

Usually Kd stands for the constant that tells how readily two partners part at equilibrium. Higher therefore signals lower affinity.
